According to the supplement of paper PMC12764529:
± gives the half width of the 95% confidence interval.

Columns and labels:
[1] = folding stability dG unfold from trypsin proteolysis; higher = more stable
In short: (§1)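 Designed mini-proteins with no cysteine and under 80 residues were kept only if AlphaFold2 dimer inter-PAE was above 15. In a PA-tagged cDNA display construct, they were digested with trypsin and chymotrypsin and then sequenced. K50 was inferred by Bayesian fitting of counts, and unfolding free energy was derived per protease or combined against a sequence-predicted unfolded-state K50 and a shared folded-state K50.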

[2] = folding stability dG unfold from chymotrypsin proteolysis; higher = more stable
In short: as §1

[3] = folding stability dG unfold (combined trypsin and chymotrypsin); higher = more stable
In short: as §1

| Sequence | folding stability dG unfold [1] [kcal/mol] | folding stability dG unfold [2] [kcal/mol] | folding stability dG unfold [3] [kcal/mol] |
| --- | --- | --- | --- |
| SAGGSAGGSAGGMKTITLTTTSPEEAEAAKEKLLKEGPNNLVITYKPPPEPYPENGPRVVSAGGSAGGSAGG [r7_261_JUSTAS] | -0.294 ± 0.25 | 0.743 ± 0.14 | 0.683 ± 0.21 |
| SAGGTMKYDVEQKYKYPDPDGNPGGEGKHTQEVEVPPPPVIIIPPNDRELAKELAEKFGIPITPDDIASAGG [r19_315_TrROS] | 0.854 ± 0.18 | 0.5 ± 0.25 | 0.609 ± 0.39 |
| SAGGSAGGSEIPDIEITIDSIEFFPDGTVRITATVRFPGGGTAKITLTLPAPPAEYEPPSDLLSAGGSAGGS [r12_558_TrMRF] | 1.49 ± 0.2 | 1.12 ± 0.25 | 1.39 ± 0.5 |
| SAGGSAGGSAGSYTVTPITLKLPDGTEVDAVLTTDPAGNVTLTLTGDSPLSTLTFPASTLSAGGSAGGSAGG [r11_327_JUSTAS] | 0.119 ± 0.026 | 1.6 ± 0.039 | 1.18 ± 0.049 |
| SMKKIVLIYPESVSPEEAEKIAEEILKKLGLKKGSPVTILPLSEYESNPEMRARIEEAKKKGADIIIEVKSA [r9_1147_JUSTAS] | 2.91 ± 0.15 | 2.8 ± 0.1 | 2.78 ± 0.17 |
| SAGGSAGGEEIAKKLGIEKAEIVEVKDNKITLKVKLKNGEELKIELYIDKKTKEIKIVKIEKVPSAGGSAGG [r6_526_TrROS_Hall] | 2.37 ± 0.079 | 3.11 ± 0.075 | 2.88 ± 0.23 |
| SKKIKLSEEMKEAIKEAVKKAKPGEKVEITIKLKDGSIIKIEIYPDGTIKISVFDKNGKKIKEFEIKIKPSA [r9_132_TrROS_Hall] | 1.43 ± 0.075 | 2.59 ± 0.12 | 1.81 ± 0.44 |
| SAGGATLTLKPGDEITLTLTVTVTVTNEDGSTSTFTTTVTLTLRIEPAPPPPPVTVERDADGNLRVTLSAGG [r13_401_TrROS_Hall] | 2.35 ± 0.089 | 2.46 ± 0.091 | 2.48 ± 0.18 |
| SAGGSAGGSAGGSADKNGYVKIPITVFTMERYGNGQPKMETVKVEIYVPPGESIEDLLQSAGGSAGGSAGGS [r4_283_TrROS] | 0.0466 ± 0.19 | 0.166 ± 0.32 | 0.247 ± 0.22 |
| SAGGSAGGSAGGPRPLRRELRIRRRFRFRVLGLEEGEPRPREFEVEVELVLVETRGPGESAGGSAGGSAGGS [r10_118_TrMRF] | 2.65 ± 0.082 | 4.31 ± 0.093 | 3.84 ± 0.21 |
| SAGGMNISIEPIGRDNDRWYYMITFPGDANEIKDFIEEFLPPGLPIKVKVLEVDPENGHVTVMIEIPRSAGG [r13_491_TrROS] | 2.21 ± 0.042 | 3.58 ± 0.043 | 3.24 ± 0.058 |
| SAGGSAGGMVTITEVSYDPKIGKTFTLVTVKDPEGKETLVEVPLEEIEKLIEEVPEGRPVEIAPSAGGSAGG [r6_113_JUSTAS] | -0.0621 ± 0.054 | -0.983 ± 0.64 | -0.199 ± 0.19 |
| SAGGSAGGSASTSEKIDYPNPPITVTRLPNGVVLVTYSDSNTTTVIPESVLATLPPTVPLFSAGGSAGGSAG [r3_256_JUSTAS] | 1.58 ± 0.048 | 1.12 ± 0.013 | 1.33 ± 0.043 |
| SAGGPKIKIEAFPDGTVKITIELPDGVTIVIELKFDPETGTVHAKITLLPKDKPVTFEFTFKIPPDASAGGS [r16_230_TrMRF] | 3.34 ± 0.35 | 4.34 ± 0.11 | 4.29 ± 0.41 |
| SSSSMKTITLEKKITSPEEAEALREELLKKGYEVEVKVYPHPDSYIAKITVTIEVPPPPLSPTNPSALLKSA [r9_863_JUSTAS] | 1.19 ± 0.061 | 0.913 ± 0.2 | 0.967 ± 0.22 |
| SAGGGVPLTRSEPLGEIEFPEENIKLKISRYTSPLDGTEYIEITTDYGEGTSTSIYPPGEIEEILGGSAGGS [r16_603_JUSTAS] | 0.666 ± 0.12 | 1.39 ± 0.19 | 0.909 ± 0.18 |
| SAGGPDWQTIRITFWFDSPEDAEEEVRNIARTMGLPPEGIKVEITDFEPREVNGKNYYMVEAEITIPSAGGS [r16_240_TrROS] | 2.95 ± 0.044 | 4.274 ± 0.035 | 3.93 ± 0.062 |
| SAGGSAGGSAGGSPGNYREVEIEFRDPDDNGKEVKIEIWVQPGMPEEQIKEFVRELLRRSAGGSAGGSAGGS [r4_442_TrROS] | 0.942 ± 0.18 | 1.4 ± 0.19 | 1.32 ± 0.25 |
| SAGGSAGGSAGGKKTYVKKIVTEKKKVKLFFYDKKTGELLEEKEVEVIKTKIYVTKPDEFSAGGSAGGSAGG [r7_573_TrMRF] | 0.479 ± 0.13 | 0.884 ± 0.31 | 0.868 ± 0.26 |
| SAGGSAGGSAGGLEELKKGFKKPVFVAKIEKEVRLLPNGDLIVRYKIEGPDLELELVFSSAGGSAGGSAGGS [r10_160_TrMRF] | 2.6 ± 0.12 | 3.56 ± 0.14 | 3.28 ± 0.12 |
| SAMIMIRVEYPNGKTWPIMIPLRTPDGDPTKEEVEEIAERIADEIAEEHGGDNVKIEIQVMPMPPEENPSAG [r14_378_TrROS] | 2.23 ± 0.081 | 1.5 ± 0.12 | 1.82 ± 0.24 |

| Sequence | folding stability dG unfold [1] [kcal/mol] | folding stability dG unfold [2] [kcal/mol] | folding stability dG unfold [3] [kcal/mol] |
| --- | --- | --- | --- |
| SAGGKTISIEFYMPPGEPPPSIEEIAKELFPGYKDIKIKNIEIEDVEPDPDNGMKYVRVSFTIEVEPPSAGG [r13_10_TrROS] | 3.25 ± 0.27 | 3.42 ± 0.23 | 3.39 ± 0.25 |
| SAGGSAGGSAGGGKTVVYRFPASLTPEQAVDEITAKVPPNYPVIVEYHPESGTFVAYVPSAGGSAGGSAGGS [r10_163_TrMRF] | 0.725 ± 0.1 | 0.743 ± 0.29 | 0.666 ± 0.15 |
| SAGGSAGGGDEVKTFKAKVKLVSVDPETGEQLVLAEVPDGKPILVKVPKSFPLKEDEIVEFELSSAGGSAGG [r6_68_TrMRF] | 1.16 ± 0.027 | 1.31 ± 0.036 | 1.3 ± 0.059 |
| SAGGSAGGMTITLRIKITNPDGEEKEIEVELELPEELKGKTLEELAAELAKALLPPGAKVEVEPSAGGSAGG [r6_821_TrROS_Hall] | 1.73 ± 0.048 | 3.15 ± 0.074 | 2.72 ± 0.14 |
| SAGGSAGGKKPVYEIEITTKDGSKLTIAVKEGEEVEIKITVNGKEISLEDITSIEIRPVELPEESAGGSAGG [r6_222_TrROS_Hall] | 1.99 ± 0.16 | 1.84 ± 0.089 | 1.94 ± 0.098 |
| SAGGSAGGSKKRTILIQFPNGSPEEAVDNIKNWLRALGNEPIPLEDVKIQWYPGNPGYFQIEISAGGSAGGS [r12_122_TrROS] | 1.81 ± 0.027 | 2.94 ± 0.042 | 2.53 ± 0.12 |
| MVAVFEFTFKSEEELLEAAEEVARRLAAELGLPEEELEKIPIEVEVEEIGNEDGEKEYKLTIRFGFPEEFLS [r1_81_TrMRF] | 3.51 ± 0.13 | 3.92 ± 0.05 | 3.83 ± 0.13 |
| SAGGMTFSGVTREQALAIAKALEEEGYVLERVEVVEFPEDGTVRALVVVRDPETDEPLAEIELDIKPSAGGS [r16_750_TrMRF] | 1.53 ± 0.017 | 1.81 ± 0.036 | 1.7 ± 0.055 |
| SAGGSAGGSAKHRVDDIQPQRHKNPDGEKPVRVRFPDNGQEERIPADNLDDIDVSDGMEVEPSAGGSAGGSA [r18_288_TrROS] | -1.8 ± 0.45 | -0.631 ± 0.044 | -0.855 ± 0.2 |
| SAGGSMAPDVKVEVEVFPDGLVLFRLTLPDGRPFLALAEVREDGRVKVVVFDLYPGEKVEFEIPIKSAGGSA [r2_99_TrMRF] | 2.52 ± 0.12 | 3.7 ± 0.045 | 3.28 ± 0.14 |
| SALPNLKIEITLNEDGTITITVTANGEVIATATLTVTLPPPPVEKEVLDANGNKRTVRYDAKTGKAEVFDSA [r9_343_TrROS_Hall] | 0.106 ± 0.17 | 0.065 ± 0.29 | 0.0728 ± 0.47 |
| SAGGKEYRNPENGQKIPPGDTEEEREKHAREHAKPVIVPIEIPIVIKFGDVIFPIPITFEIPLTPGGSAGGS [r16_387_TrROS] | 0.0408 ± 0.054 | -0.0327 ± 0.28 | 0.058 ± 0.32 |
| SMLNPDDPSVPERLVLVIPVPEEAVENGDFEVVRAKVEEAAEELEPLGWRVVSVEFDTETKEARLVLERPSA [r9_75_TrMRF] | 3.76 ± 0.07 | 3.506 ± 0.021 | 3.617 ± 0.032 |
| SAGGSAGGSAGLTLEVELPDGKPFPVEVLEVDPGEEDVVVIRVKVKVGDKEYEVTLVLDLSAGGSAGGSAGG [r17_536_TrMRF] | 1.94 ± 0.095 | 1.76 ± 0.08 | 1.9 ± 0.15 |
| SAGGSAGGSAGGSGVLNIDEVWEDPESDLYTVVTTGEDEGTRVFVFDKNGKLLAEADLPSAGGSAGGSAGGS [r4_259_TrMRF] | 0.274 ± 0.034 | 0.405 ± 0.12 | 0.443 ± 0.1 |
| SAGGSAGGSAGGIKITPDIRELLRQQGKPFSEEEIQGIAKYIAKHFKEKGFEDVTIRIPWSAGGSAGGSAGG [r7_512_TrROS] | 0.471 ± 0.17 | 0.783 ± 0.2 | 0.774 ± 0.14 |
| SAGGSAGGSAGMKKVLIIGGPKEELAKELKEKSPDIEVEFLDPSEDLEEYKKKFDIVIIESAGGSAGGSAGG [r17_225_JUSTAS] | -0.387 ± 0.09 | 0.255 ± 0.072 | 0.0867 ± 0.084 |
| SAGGSAGGSMIIIVKLPNGEELPIEVEGEEEAEKIAEEIVKALIEKGITPVSVEIRPIKPEEGSAGGSAGGS [r12_301_TrMRF] | 3.13 ± 0.13 | 2.28 ± 0.17 | 2.97 ± 0.21 |
| SAGSITTTDGNISRSVTYIPGLNLYLVTSTYPTSVSVDLVTEEGGTLTTTPVSTTPLPLPASSLSTTASAGG [r19_328_JUSTAS] | 0.207 ± 0.059 | -0.16 ± 0.15 | 0.0781 ± 0.091 |
| SAGGSAGGSKPEPVKPVKLKVKLPGGEYEVEAVELPKGVVLVRNPADNSLAVITPDRLVVLPLSAGGSAGGS [r12_737_TrMRF] | 0.754 ± 0.024 | 0.0823 ± 0.14 | 0.468 ± 0.076 |
| SMKITIVENEDGSLKIKVYFKDTGKVVEKTFEKGETIEEQVKKLAEELEKELGLEVVDVEIVKLPPPEKPSA [r9_1205_TrROS_Hall] | 2.63 ± 0.23 | 3.74 ± 0.096 | 3.57 ± 0.12 |
